# Measurements from US20230272390A1, “COMPOSITIONS AND METHODS FOR HEMOGLOBIN PRODUCTION” (THE CHILDREN'S HOSPITAL OF PHILADELPHIA, priority 2020, published 2023).
# Assays:
# [1] = tested on: negative control oligo (shares 7/17 bp with the consensus motif); assay: Fluorescence polarization DNA binding assay, negative control oligo; conditions: same conditions
# Description: (§1) The fragment of Human ZNF410 (NP_001229855.1) comprising of five zinc finger domains ZF1-5 (residues 217-366) was cloned into pGEX-6P-1 vector with a GST fusion tag (pXC2180). The plasmid was transformed into Escherichia coli strain BL21-Codon-plus(DE3)-RIL (Stratagene). Bacteria was grown in LB broth in a shaker at 37° C. until reaching the log phase (A600 nm between 0.4 and 0.5), the shaker temperature was then set to 16° C. and 25 μM ZnCl2 was added to the cell culture. When the shaker temperature reached 16° C. and A600 nm reached ˜0.8, the protein expression was induced by the addition of 0.2 mM isopropyl-3-D-thiogalactopyranoside with subsequent growth for 20 hours at 16° C. […]
# (§2) Fluorescence polarization (FP) method was used to measure the binding affinity using a Synergy™ 4 Microplate Reader (BioTek). […]
# (§3) To further gain insight into the molecular basis of how the ZNF410 tandem ZF domain recognizes its targeting DNA sequence, crystallization of the ZNF410-DNA complex was performed. The binding affinity of the ZNF410 ZF domain (ZF1-5) with the consensus motif was quantified by fluorescence polarization using purified GST fusion protein (Patel, et al. (2016) Methods Enzymol., 573:387-401). […]
# [2] = target: oligo containing the consensus motif; assay: Fluorescence polarization DNA binding assay, consensus oligo; design: species or system human; conditions: purified GST fusion protein, 17-bp oligo containing the consensus motif, read-out: dissociation constant (KD)
# Description: as §1, §2, §3
molecule,measurement,setting,value
"ZF1-5: fragment of human ZNF410 comprising five zinc finger domains ZF1-5 (residues 217-366); dominant-negative when overexpressed (protein, left off: small tags and cut ends, fragment of human ZNF410 comprising five zinc finger domains ZF1-5 (residues 217-366); dominant-negative when overexpressed) KKLKCTVEGCDRTFVWPAHFKYHLKTHRNDRSFICPAEGCGKSFYVLQRLKVHMRTHNGEKPFMCHESGCGKQFTTAGNLKNHRRIHTGEKPFLCEAQGCGRSFAEYSSLRKHLVVHSGEKPHQCQVCGKTFSQSGSRNVHMRKHHLQLG",binding to the negative control oligo,[1],no measurable binding
same,Kd,[2],22 nM
